Experimental data reported in paper PMC9410543.

Target: GLuc1-ALIX (UniProt Q8WUM4)
Experiment: protein-fragment complementation assay (split Gaussia luciferase, GLuc2 bait / GLuc1 prey)
Conditions: parent: est. 7.4; read off a plot

GLuc1-ALIX, sequence (Q8WUM4 whole entry, the tested form may be a part): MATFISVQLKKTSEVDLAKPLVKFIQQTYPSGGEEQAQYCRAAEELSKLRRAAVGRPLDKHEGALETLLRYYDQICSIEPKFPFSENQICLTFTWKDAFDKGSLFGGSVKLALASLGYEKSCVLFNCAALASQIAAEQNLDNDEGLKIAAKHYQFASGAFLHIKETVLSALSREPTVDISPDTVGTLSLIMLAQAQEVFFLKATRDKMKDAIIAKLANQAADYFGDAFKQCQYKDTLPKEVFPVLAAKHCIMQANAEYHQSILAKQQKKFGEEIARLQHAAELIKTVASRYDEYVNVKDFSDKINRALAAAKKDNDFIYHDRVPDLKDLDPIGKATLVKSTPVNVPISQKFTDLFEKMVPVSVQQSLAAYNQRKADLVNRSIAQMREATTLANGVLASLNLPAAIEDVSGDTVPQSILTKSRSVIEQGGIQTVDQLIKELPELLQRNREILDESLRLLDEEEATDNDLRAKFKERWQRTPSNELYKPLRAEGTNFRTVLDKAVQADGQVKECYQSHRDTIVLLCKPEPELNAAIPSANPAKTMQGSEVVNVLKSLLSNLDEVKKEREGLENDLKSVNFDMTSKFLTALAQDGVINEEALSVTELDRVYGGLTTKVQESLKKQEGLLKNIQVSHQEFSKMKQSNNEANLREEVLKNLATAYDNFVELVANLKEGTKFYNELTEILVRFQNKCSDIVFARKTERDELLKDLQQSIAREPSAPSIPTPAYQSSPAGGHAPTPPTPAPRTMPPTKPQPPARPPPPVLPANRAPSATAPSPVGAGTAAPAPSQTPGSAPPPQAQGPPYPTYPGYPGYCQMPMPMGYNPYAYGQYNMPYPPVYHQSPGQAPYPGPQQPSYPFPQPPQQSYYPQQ

GLuc2-pX Y800A; K801A; E802A; L803A
response (Log2 normalized LU): 1.5
